These results are taken from publication PMC4153629.

Experiment [1] deals with GH family 10 endo-β-1,4-xylanase Xyn10A from Caldicellulosiruptor lactoaceticus 6A (Caldicellulosiruptor lactoaceticus 6A). As to the kind of experiment: SEC; Superdex 200 column (33 mL elution volume), 50 mM sodium citrate, 150 mM NaCl, pH 6.0, 0.5 mL/min; apparent Mw from a calibration curve of log (Mw) vs. elution volume; self-association (homodimer). For orientation: Size exclusion chromatography separates by hydrodynamic size, large species first.

Experiment [2] has as its target GH67 α-glucuronidase Agu67A from Caldicellulosiruptor lactoaceticus 6A (Caldicellulosiruptor lactoaceticus 6A). Described as above.

The stoichiometry N is a count of units in the complex or per binding partner.

With “GH family 10 endo-β-1,4-xylanase Xyn10A from Caldicellulosiruptor lactoaceticus 6A (enzyme)”, the stoichiometry N in experiment [1] came out at 2.

As for “GH67 α-glucuronidase Agu67A from Caldicellulosiruptor lactoaceticus 6A (enzyme)”, the stoichiometry N in experiment [2] stood at 2.
